Data from PMC6349933.

How the values were obtained:
Test in all cases: FRET or BRET; acceptor photobleaching FRET between ECFP and EYFP fusions in tobacco leaf epidermis; YFP bleached with a 514 nm laser; E = 100(A − B)/B
[1] = target: EYFP-ROP11G17V (Arabidopsis) (UniProt O82481)
EYFP-ROP11 (Arabidopsis) = EYFP-ROP11 (Arabidopsis) (UniProt O82481)
[2] = target: EYFP-ROP11T22N (Arabidopsis) (UniProt O82481)
[3] = target: BDR1-ECFP (Arabidopsis thaliana)
Sequence of BDR1-ECFP (Arabidopsis thaliana) (main, as listed by the source): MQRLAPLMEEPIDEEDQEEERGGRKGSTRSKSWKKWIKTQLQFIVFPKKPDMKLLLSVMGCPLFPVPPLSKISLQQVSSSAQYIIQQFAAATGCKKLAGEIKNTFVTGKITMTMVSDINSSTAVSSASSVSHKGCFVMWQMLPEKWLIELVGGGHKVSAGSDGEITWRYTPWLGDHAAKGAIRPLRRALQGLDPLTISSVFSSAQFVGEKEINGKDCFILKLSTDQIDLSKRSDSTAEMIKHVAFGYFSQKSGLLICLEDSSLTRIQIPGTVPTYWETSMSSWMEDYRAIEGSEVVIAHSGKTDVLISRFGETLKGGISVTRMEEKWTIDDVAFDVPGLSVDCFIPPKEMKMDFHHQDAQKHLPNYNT

| Substance | FRET efficiency [1] [%] | FRET efficiency (EYFP-ROP11 (Arabidopsis)) [%] | FRET efficiency [2] [%] | FRET efficiency [3] [%] |
| --- | --- | --- | --- | --- |
| BDR1-ECFP (natural protein) | > 10 | > 10 | 0 | – |
| EYFP-WAL (natural protein) | – | – | – | 15 |
